The values that follow come from patent US20190145976A1 (GOVERNING COUNCIL OF THE UNIVERSITY OF TORONTO, published 2019).

The target in one assay is T1, neutravidin (UniProt P02701 25-152).
T1 construct: Negative control in the phage ELISA; also called NA; NAV
The assay is described as follows: Fab-phage ELISA on immobilised antigen, HRP-conjugated anti-phage antibody, absorbance at 450 nm. The protocol: (§1) (B) Specificity determination of anti-αKlotho sb106 by Fab-phage ELISA: sb106 Fab-phage were incubated with the following immobilized antigens: a complex of FGFR1c/αKlotho complex (aKL-R1), FGFR1c alone (R1), human αKlotho (Hu aKL) and mouse αKlotho (Mu aKL), or neutravidin (NA) and bovine serum albumin (BSA) as negative controls. After washing off unbound phage, bound phages were detected using an HRP-conjugated anti-phage antibody. Colorimetric HRP reagents allow for absorbance readings at 450 nm. […] The binding signals to immobilized human αKlotho reported are an average of two data sets.
(§2) Binding selections, phage ELISAs and Fab protein purification were performed as described. Briefly, phage from library F were cycled through rounds of panning with the binary complex of αKlotho extracellular domain and FGFR1c ligand-binding domain on 96-well Maxisorp Immunoplates (Fisher Scientific, Nepean, ON, Canada) as the capture target. After 5 rounds of selection, phage were produced from individual clones grown in a 96-well format and phage ELISAs were performed to detect specific binding clones. […] A competitive binding ELISA was performed by pre-incubating sb106-phage with serial dilutions of soluble human αKlotho (50-0.0005 nM×1 hour) prior to binding to an ELISA plate coated with human αKlotho. […] Fab and IgG proteins were affinity-purified on Protein A affinity columns (GE Healthcare, Mississauga, ON, Canada).
(In general: In an ELISA, binding on a coated surface is turned into a signal by an enzyme label.)

The target of assay [1] is T2, ligand-binding domain of human FGFR1c (D142 to R365) (human, UniProt P11362 142-365).
T2 construct: range 142-365; also called FGFR1c alone
T2 sequence (looked up): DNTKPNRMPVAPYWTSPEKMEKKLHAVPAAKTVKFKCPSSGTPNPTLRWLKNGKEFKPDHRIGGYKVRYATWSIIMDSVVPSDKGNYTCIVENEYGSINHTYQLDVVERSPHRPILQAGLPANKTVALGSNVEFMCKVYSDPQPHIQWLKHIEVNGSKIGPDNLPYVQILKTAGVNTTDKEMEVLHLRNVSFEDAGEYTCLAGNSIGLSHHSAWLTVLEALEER
The description is as above. How it is done: as §1, §2

The target in a further assay is T3, bovine serum albumin (bovine, UniProt P02769 25-607).
T3 construct: Negative control in the phage ELISA; also called BSA
T3 sequence (P02769 25-607 limits assumed): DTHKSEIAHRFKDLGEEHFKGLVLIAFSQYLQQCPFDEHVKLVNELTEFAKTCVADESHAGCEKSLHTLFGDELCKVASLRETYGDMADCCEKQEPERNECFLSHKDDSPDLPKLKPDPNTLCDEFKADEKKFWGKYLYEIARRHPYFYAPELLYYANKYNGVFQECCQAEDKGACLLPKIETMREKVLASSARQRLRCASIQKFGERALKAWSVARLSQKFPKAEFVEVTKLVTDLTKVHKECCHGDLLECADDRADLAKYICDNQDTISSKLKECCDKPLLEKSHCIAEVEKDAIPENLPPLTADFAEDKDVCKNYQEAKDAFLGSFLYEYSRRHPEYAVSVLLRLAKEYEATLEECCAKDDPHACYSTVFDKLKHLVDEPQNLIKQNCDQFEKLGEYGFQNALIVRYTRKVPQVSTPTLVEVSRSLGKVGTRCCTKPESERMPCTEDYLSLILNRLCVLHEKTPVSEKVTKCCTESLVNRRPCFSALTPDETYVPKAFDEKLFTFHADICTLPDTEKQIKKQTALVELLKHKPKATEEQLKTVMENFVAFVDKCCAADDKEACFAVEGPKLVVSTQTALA
Described as above. How it is done:
as §1, §2

Assay [2] has as its target T4, recombinant soluble human αKlotho (human, UniProt Q9UEF7 34-981).
T4 construct: extracellular domain; Bought (R&D Systems); also called Hu aKL; soluble human αKlotho ectodomain
T4 sequence (looked up): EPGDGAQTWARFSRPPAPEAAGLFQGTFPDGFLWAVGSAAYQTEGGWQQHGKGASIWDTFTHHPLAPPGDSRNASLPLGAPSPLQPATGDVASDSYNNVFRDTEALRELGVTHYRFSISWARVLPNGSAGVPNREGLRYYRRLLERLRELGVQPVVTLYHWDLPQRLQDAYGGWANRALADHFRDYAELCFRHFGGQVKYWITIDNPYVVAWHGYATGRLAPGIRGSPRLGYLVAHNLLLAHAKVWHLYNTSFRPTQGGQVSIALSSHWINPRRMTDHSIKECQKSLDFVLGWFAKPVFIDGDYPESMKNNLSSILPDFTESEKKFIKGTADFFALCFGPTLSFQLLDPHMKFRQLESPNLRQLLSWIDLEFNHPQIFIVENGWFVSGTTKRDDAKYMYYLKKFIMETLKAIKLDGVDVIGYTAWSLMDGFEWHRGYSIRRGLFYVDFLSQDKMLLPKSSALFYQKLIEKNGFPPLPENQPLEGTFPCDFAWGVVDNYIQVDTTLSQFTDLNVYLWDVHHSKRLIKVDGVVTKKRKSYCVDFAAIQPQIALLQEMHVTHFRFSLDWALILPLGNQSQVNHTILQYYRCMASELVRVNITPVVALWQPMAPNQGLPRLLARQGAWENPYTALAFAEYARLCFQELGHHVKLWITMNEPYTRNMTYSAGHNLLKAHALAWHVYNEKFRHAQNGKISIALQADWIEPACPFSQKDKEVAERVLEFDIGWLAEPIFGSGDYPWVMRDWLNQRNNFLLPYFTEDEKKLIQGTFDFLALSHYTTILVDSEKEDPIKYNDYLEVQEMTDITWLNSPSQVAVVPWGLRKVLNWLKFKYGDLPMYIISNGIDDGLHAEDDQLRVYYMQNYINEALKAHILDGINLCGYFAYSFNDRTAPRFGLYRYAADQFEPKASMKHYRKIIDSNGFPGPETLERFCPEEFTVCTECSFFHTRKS
Put plainly: competitive Fab-phage ELISA with soluble human αKlotho as competitor (FIG. 1C). The protocol: as §1
(§3) Binding selections, phage ELISAs and Fab protein purification were performed as described. Briefly, phage from library F were cycled through rounds of panning with the binary complex of αKlotho extracellular domain and FGFR1c ligand-binding domain on 96-well Maxisorp Immunoplates (Fisher Scientific, Nepean, ON, Canada) as the capture target. After 5 rounds of selection, phage were produced from individual clones grown in a 96-well format and phage ELISAs were performed to detect specific binding clones. […] A competitive binding ELISA was performed by pre-incubating sb106-phage with serial dilutions of soluble human αKlotho (50-0.0005 nM×1 hour) prior to binding to an ELISA plate coated with human αKlotho. […]

Assay [3] addresses T4, recombinant soluble human αKlotho. The assay is described as follows: competitive Fab-phage ELISA: sb106-phage pre-incubated with soluble human αKlotho (50-0.0005 nM), then bound to plate-coated human αKlotho; competitive Fab-phage ELISA; soluble human αKlotho as competitor. The protocol: as §1, §3
For assay [4], the target named is T5, native rat αKlotho in tissue and NRK cells (rat, UniProt Q9Z2Y9 35-1014).
T5 construct: also called αKlotho of rat parathyroid tissue; native αKlotho of NRK cells
T5 sequence (looked up): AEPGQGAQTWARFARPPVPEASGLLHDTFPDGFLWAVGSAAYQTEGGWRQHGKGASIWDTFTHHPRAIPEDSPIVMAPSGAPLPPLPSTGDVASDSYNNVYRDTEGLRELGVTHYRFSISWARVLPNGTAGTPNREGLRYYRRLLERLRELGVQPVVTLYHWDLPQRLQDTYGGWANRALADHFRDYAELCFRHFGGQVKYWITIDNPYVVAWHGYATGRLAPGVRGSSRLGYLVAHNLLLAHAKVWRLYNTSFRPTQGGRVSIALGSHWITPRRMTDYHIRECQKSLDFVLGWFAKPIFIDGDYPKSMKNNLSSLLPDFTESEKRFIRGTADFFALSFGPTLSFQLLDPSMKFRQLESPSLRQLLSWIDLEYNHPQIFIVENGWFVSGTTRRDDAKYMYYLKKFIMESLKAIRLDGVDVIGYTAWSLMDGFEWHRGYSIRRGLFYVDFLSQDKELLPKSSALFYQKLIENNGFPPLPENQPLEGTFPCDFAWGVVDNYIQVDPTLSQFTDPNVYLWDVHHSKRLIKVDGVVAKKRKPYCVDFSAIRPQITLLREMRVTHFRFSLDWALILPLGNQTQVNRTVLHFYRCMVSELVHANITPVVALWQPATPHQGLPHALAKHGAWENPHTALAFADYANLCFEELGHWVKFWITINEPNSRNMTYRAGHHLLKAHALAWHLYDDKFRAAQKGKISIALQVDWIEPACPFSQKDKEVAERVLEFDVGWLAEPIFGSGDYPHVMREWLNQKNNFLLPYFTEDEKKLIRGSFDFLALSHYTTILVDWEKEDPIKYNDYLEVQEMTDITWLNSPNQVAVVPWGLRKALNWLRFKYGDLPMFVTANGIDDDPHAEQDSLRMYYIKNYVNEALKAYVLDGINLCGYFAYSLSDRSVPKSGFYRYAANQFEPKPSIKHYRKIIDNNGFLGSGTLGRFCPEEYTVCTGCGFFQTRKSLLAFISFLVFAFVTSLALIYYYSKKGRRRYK
Put plainly: immunohistochemistry on freshly frozen unfixed rat parathyroid sections; freshly frozen unfixed rat parathyroid tissue (native fold). How it is done: For labeling, sections were blocked (PBS, 1.5% BSA, 10% goat serum; 40 min) and incubated with the primary antibody sb106 ([…] in blocking solution; 4° C. overnight). After washing (PBS), sections were incubated with the Alexa 546 goat anti-human IgG (1:800 dilution, Invitrogen) for 1 hour at room temperature. After additional washes with PBS, the sections were fixed with 4% paraformaldehyde in PBS, washed with PBS, and mounted and visualized with a Zeiss LSM510 microscope.
Sb106 was highly reactive against αKlotho under native conditions. Immunoblot signals under denaturing conditions against mouse, rat, and human kidney tissue were weak, but in samples from transgenic mice overexpressing αKlotho[79], sb106-Fab detected a band corresponding to the full-length extracellular domain of αKlotho (FIG. 2A). In cultured cells, sb106-Fab was not able to detect αKlotho in immunoblots under denaturing conditions with lysates from NRK cells expressing native αKlotho but it was able to detect overexpressed antigen in cell lysates from HEK293 cells transfected with αKlotho (FIG. 2B). […] Cells were then incubated with sb106-Fab ([…] in 1% BSA in PBS) for 1 hr. Cells were washed 5 times with cold PBS (2 min each) and then incubated with anti-FLAG-Alexa488 (the C-terminus of the Fab light chain contains a Flag epitope tag) (1:400 in 1% BSA in PBS) for 1 hr, while being protected from light. […]

T1 sequence (P02701 25-152): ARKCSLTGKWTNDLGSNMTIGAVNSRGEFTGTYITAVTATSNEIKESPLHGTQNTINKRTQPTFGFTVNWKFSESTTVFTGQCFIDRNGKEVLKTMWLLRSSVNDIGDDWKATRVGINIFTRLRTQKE

B1: sb106 Fab-phage (Fab, V domains shown)
VH: EVQLVESGGGLVQPGGSLRLSCAASGFNISYYSIHWVRQAPGKGLEWVAYISPSYGYTSYADSVKGRFTISADTSKNTAYLQMNSLRAEDTAVYYCARYYVYASHGWAGYGMDYWGQGTLVTVSS
VL: DIQMTQSPSSLSASVGDRVTITCRASQSVSSAVAWYQQKPGKAPKLLIYSASSLYSGVPSRFSGSRSGTDFTLTISSLQPEDFATYYCQQAGYSPITFGQGTKVEIKR
notes: also called sb106-phage; Sb106-phage
One may read the Kd as the free concentration of one partner at which half of the binding sites on the other are occupied at equilibrium, for simple one-to-one binding. Usually IC50 stands for the point on the concentration scale where inhibition reaches its midpoint. Consider B1, for which the binding result (with neutravidin; in assay [1]; with bovine serum albumin) was “no binding” each time. In addition, the dissociation constant Kd in assay [2] was in the range of 1 to 2 nM. The concentration for half-maximal inhibition (IC50) in assay [3] came to 1.7 nM.

B2: sb106-IgG (antibody, V domains shown)
VH: B1 VH
VL: B1 VL
As for B2, the binding result in assay [4] is on record as “binds”.
